B1: 10 kDa anti-sigma factor (Enterobacteria phage T4), P32267 (parent)
chain: MNKNIDTVREIITVASILIKFSREDIVENRANFIAFLNEIGVTHEGRKLNQNSFRKIVSELTQEDKKTLIDEFNEGFEGVYRYLEMYTNK

Variants of: B1
Conditions: with rpob_ecoli rpoB

Row | Variant | effect of a mutation on the interaction
1 | MNKNIDTVREIITVASILIKFSREDIVENRANFIAFLNEIGVTHEGRKLNQNSFRKIVSELTQEDKKTLIDEFDEGFEGVYRYLEMYTNK [N74D] | decreasing interaction strength

From IntAct's records for PubMed 19366670
